Laboratory results taken from PMC4398322, “Snake neurotoxin α-bungarotoxin is an antagonist at native GABAA receptors” (Neuropharmacology, 2015).

How the values were obtained:
[1] = molecular target: T1, β1 homomers (Mus musculus, UniProt P50571); experiment: α-Bgtx-AF555 staining of HEK-293 cells expressing β homomers, with or without permeabilisation; type: binding, murine; conditions: 400 nM α-Bgtx-AF555, with or without permeabilisation
T1 construct: expressed in transfected cells; host or cells: HEK-293
T1 sequence (P50571 26-474): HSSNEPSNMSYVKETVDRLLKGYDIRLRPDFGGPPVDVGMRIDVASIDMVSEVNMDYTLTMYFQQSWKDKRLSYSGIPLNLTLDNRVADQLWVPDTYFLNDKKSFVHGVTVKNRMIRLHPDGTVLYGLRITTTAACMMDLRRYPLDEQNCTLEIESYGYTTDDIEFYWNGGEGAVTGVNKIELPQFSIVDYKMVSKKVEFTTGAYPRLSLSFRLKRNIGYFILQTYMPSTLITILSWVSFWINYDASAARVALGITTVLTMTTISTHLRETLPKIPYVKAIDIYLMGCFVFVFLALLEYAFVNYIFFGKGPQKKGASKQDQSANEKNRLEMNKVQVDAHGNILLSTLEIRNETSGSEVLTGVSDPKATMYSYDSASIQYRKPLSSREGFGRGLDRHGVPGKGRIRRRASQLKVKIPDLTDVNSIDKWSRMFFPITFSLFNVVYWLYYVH
Procedure: (§1) Murine GABAAR α1-6, β1-3, γ2 and δ cDNAs subcloned into pRK-5 and pEGFP-C1 have been described previously ([Mortensen et al., 2011]).
(§2) Cells were transfected with equimolar ratios of cDNAs encoding for α1–6, β1–3 and δ or γ2 GABAA receptor subunits along with eGFP using a calcium phosphate method ([Mortensen et al., 2011]) 15–45 min after plating.
(§3) Live transfected HEK-293 cells were studied 48 h after transfection and washed with Krebs to remove cell culture media and incubated in 400 nM α-Bgtx coupled with Alexa Fluor 555 (α-Bgtx-AF555; Life Technologies) for 10 min at room temperature (RT). Cells were washed and fixed in 4% paraformaldehyde (PFA; Sigma) for 10 min at RT. The cells were imaged immediately post-fixation in saline using a Zeiss LSM 510 Meta confocal microscope and an Achroplan x40 water DIC objective (NA 0.8) as described previously ([Hannan et al., 2012]). This involved choosing the optimal z-section and acquiring images as a mean of 4 scans in 16-bits using a 543 nm Helium–Neon laser and a 560 nm long-pass filter for α-Bgtx-AF555 and a 488 Argon laser with a 505–530 nm band-pass filter for eGFP.
(§4) In experiments using permeabilisation, cells were fixed in 4% PFA for 10 min at RT followed by washes (x3) in phosphate buffered saline (PBS; Sigma) and 0.1% triton-X100 (Sigma) was added for 10 min at RT in 10% (v/v) FCS. Cells were washed to remove the detergent and 400 nM α-Bgtx-AF555 was added for 10 min at RT to label intracellular receptors.
(§5) Confocal images were analysed using ImageJ (version 1.410) as described previously ([Hannan et al., 2013]). For each cell the surface membrane was identified by drawing a region-of-interest (ROI) in the eGFP channel and this was transferred to the α-Bgtx-AF555 channel and the mean membrane fluorescence values were determined. Mean background fluorescence was determined from a region devoid of cells. This was subtracted from the mean membrane fluorescence providing a mean corrected fluorescence intensity value. These values, for different combinations of receptors and drugs, were graphically plotted using Origin.

[2] = molecular target: T2, β3 homomers (Mus musculus, UniProt P63080); experiment: as above; type: binding, murine; conditions: 400 nM α-Bgtx-AF555, with or without permeabilisation
T2 construct: expressed in transfected cells; host or cells: HEK-293
T2 sequence (P63080 26-473): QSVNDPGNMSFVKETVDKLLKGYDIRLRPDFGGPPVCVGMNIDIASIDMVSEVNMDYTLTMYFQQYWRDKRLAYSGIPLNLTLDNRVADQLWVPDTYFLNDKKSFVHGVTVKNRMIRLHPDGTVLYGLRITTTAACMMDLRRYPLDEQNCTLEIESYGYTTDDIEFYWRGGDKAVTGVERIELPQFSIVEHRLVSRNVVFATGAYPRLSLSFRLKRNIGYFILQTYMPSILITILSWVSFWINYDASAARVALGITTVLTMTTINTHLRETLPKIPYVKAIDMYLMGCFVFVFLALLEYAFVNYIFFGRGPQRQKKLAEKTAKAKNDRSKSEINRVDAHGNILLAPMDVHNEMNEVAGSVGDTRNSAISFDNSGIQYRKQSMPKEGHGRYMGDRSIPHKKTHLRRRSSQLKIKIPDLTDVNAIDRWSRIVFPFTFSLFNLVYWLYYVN
Procedure: as §1, §2, §3, §4, §5

[3] = molecular target: T3, β2 homomers (Mus musculus, UniProt P63137); experiment: as above; type: binding, murine; conditions: 400 nM α-Bgtx-AF555, with or without permeabilisation
T3 construct: expressed in transfected cells; host or cells: HEK-293
T3 sequence (P63137 25-512): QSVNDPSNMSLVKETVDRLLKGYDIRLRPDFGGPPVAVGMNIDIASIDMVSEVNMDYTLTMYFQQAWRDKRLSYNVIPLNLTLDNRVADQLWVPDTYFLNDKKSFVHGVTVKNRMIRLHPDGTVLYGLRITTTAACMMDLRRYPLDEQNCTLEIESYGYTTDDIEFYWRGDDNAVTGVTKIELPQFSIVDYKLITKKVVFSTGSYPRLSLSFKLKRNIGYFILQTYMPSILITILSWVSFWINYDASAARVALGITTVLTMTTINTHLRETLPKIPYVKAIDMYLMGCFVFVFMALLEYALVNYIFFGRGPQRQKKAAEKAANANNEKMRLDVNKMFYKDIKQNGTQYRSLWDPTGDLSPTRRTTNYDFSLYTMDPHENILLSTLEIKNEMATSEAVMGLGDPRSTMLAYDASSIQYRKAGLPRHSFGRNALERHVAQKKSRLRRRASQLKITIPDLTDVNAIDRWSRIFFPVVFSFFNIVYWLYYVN
Procedure: as §1, §2, §3, §4, §5

[4] = test system: HEK-293 cells expressing only eGFP; experiment: α-Bgtx-AF555 cell surface staining of HEK-293 cells expressing only eGFP; type: binding; conditions: 400 nM α-Bgtx-AF555, 10 min RT, n = 6
Procedure: (§6) HEK-293 cells were maintained at 37 °C in a humidified 95% air/5% CO2 atmosphere in Dulbecco's modified Eagle's medium (DMEM) supplemented with 10% (v/v) fetal calf serum (FCS), penicillin-G and streptomycin (100 units/ml and 100 μg/ml), 2 mM L-glutamine. Cells were plated onto 22 mm glass coverslips (VWR), coated with poly-L-lysine (Sigma). All media components were from Life Technologies unless otherwise stated.
as §2
Live transfected HEK-293 cells were studied 48 h after transfection and washed with Krebs to remove cell culture media and incubated in 400 nM α-Bgtx coupled with Alexa Fluor 555 (α-Bgtx-AF555; Life Technologies) for 10 min at room temperature (RT). […]
as §5, with “These values, for different combinations of receptors and drugs, were graphically plotted using Origin.” left out

[5] = test system: E18 rat hippocampal cultured neurons; experiment: Live cell confocal microscopy of fluorescent α-Bgtx binding to cultured hippocampal neurons; conditions: 400 nM; untransfected neurons
Procedure: Dissociated hippocampal neurons were prepared from embryonic day 18 rat pups as described ([Hannan et al., 2012]). Briefly, hippocampi were dissected in ice-cold Hank's Balanced Salt Solution (HBSS) (Ca^2+/Mg^2+ free) before enzymatic dissociation in 0.1% (w/v) trypsin at 37 °C for 10 min followed by serial washes in pre-warmed HBSS to remove trypsin prior to trituration. Cells were mechanically dissociated using fire-polished glass Pasteur pipettes in plating medium composed of minimal essential medium (MEM) supplemented with 5% (v/v) fetal calf serum (FCS), 5% (v/v) horse serum, penicillin-G and streptomycin (200 units/ml and 200 μg/ml), 2 mM L-glutamine and 35 mM glucose. Cells were plated at a density of 10^6 per ml in plating medium on glass cover-slips previously coated with poly-D-lysine. The neurons were grown and maintained at 37 °C in a humidified 95% air/5% CO2 atmosphere.
In addition, low concentrations of fluorophore-conjugated α-Bgtx can also be used to avoid labelling of GABAARs as the affinity of α-Bgtx for endogenous GABAARs is lower compared to that for the BBS. […] Similarly, the over-expression of recombinant receptors in heterologous expression systems (HEK-293 cells) allows the detection of α-Bgtx fluorescence at low concentrations.

[6] = molecular target: T4, α4β2γ2 GABAAR (Mus musculus, UniProt P22723+P63137+Q9D6F4); experiment: α-Bgtx-AF555 cell surface staining of transfected HEK-293 cells; type: binding, murine; conditions: 400 nM α-Bgtx-AF555, 10 min RT; n = 6; not significant vs eGFP alone
T4 construct: expressed in transfected cells; host or cells: HEK-293
T4 sequence (P63137 25-512): as above
T4 sequence (P22723 39-474): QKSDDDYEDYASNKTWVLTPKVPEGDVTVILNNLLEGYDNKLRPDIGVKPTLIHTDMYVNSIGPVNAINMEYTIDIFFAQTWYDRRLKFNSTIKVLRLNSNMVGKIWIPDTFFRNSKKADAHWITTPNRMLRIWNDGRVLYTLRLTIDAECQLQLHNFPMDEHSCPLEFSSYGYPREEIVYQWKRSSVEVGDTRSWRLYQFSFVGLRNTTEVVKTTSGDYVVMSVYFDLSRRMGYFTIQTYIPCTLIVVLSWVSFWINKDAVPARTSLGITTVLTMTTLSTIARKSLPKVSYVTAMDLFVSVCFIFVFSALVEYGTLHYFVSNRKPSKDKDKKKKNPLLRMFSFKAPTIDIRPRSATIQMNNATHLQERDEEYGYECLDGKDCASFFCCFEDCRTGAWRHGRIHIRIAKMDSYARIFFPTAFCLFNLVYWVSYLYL
T4 sequence (Q9D6F4 36-552): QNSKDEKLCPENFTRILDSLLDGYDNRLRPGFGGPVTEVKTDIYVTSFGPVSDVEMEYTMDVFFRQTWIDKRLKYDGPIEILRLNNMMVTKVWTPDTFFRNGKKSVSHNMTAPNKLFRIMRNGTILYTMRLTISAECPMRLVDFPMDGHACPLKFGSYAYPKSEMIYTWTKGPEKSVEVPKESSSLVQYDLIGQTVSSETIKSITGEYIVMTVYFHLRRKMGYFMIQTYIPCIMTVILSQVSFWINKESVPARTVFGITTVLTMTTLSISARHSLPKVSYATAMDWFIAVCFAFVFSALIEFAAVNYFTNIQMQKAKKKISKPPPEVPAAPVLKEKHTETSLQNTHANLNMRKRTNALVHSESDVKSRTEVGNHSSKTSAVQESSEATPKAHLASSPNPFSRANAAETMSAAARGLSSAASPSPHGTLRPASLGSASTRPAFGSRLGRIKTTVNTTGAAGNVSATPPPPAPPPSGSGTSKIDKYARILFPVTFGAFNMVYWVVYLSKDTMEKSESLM
Procedure: as §1, §6, §2, §3, §5

[7] = molecular target: T5, α2β2γ2 GABAAR (Mus musculus, UniProt P22723+P26048+P63137); experiment: as above; type: binding, murine; conditions: 400 nM α-Bgtx-AF555, 10 min RT; n = 6
T5 construct: expressed in transfected cells; host or cells: HEK-293
T5 sequence (P63137 25-512): as the sequence (P63137 25-512) above
T5 sequence (P26048 29-451): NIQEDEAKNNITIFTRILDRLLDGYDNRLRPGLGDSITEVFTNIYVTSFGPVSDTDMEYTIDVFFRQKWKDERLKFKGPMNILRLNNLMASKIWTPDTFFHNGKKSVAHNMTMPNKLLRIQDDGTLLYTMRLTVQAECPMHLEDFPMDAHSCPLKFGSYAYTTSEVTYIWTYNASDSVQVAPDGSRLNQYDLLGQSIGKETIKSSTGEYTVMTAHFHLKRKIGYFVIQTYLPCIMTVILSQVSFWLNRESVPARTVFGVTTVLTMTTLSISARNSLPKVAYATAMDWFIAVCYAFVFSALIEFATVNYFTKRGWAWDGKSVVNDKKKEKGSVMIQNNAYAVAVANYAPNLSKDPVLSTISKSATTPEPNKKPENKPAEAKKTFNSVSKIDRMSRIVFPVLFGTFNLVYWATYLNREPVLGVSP
T5 sequence (P22723 39-474): as the sequence (P22723 39-474) above
Procedure: as §1, §6, §2, §3, §5

[8] = molecular target: T6, α4β1γ2 GABAAR (Mus musculus, UniProt P22723+P50571+Q9D6F4); experiment: as above; type: binding, murine; conditions: 400 nM α-Bgtx-AF555, 10 min RT; n = 6; not significant vs eGFP alone
T6 construct: expressed in transfected cells; host or cells: HEK-293
T6 sequence (P50571 26-474): as the sequence (P50571 26-474) above
T6 sequence (P22723 39-474): as the sequence (P22723 39-474) above
T6 sequence (Q9D6F4 36-552): as the sequence (Q9D6F4 36-552) above
Procedure: as §1, §6, §2, §3, §5

[9] = molecular target: T7, α1β1γ2 GABAAR (Mus musculus, UniProt P22723+P50571+P62812); experiment: as above; type: binding, murine; conditions: 400 nM α-Bgtx-AF555, 10 min RT; n = 6
T7 construct: expressed in transfected cells; host or cells: HEK-293
T7 sequence (P62812 28-455): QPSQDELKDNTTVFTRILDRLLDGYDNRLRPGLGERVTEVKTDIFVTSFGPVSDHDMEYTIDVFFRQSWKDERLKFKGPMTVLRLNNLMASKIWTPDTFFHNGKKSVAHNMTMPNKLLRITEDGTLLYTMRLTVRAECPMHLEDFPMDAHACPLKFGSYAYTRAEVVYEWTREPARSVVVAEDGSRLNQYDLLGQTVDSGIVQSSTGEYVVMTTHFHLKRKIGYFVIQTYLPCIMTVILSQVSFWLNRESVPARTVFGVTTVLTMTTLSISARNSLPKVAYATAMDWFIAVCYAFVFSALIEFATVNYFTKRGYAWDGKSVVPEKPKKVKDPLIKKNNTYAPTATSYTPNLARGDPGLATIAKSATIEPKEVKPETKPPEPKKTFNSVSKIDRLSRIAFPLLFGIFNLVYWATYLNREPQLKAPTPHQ
T7 sequence (P50571 26-474): as the sequence (P50571 26-474) above
T7 sequence (P22723 39-474): as the sequence (P22723 39-474) above
Procedure: as §1, §6, §2, §3, §5

[10] = test system: Receptors containing α3/5/6 subunits and β1/2γ2; experiment: as above; type: binding, murine; conditions: 400 nM, 10 min RT; P > 0.05
Procedure: as §1, §6, §2, §3, §5

[11] = molecular target: T8, α2β1γ2 GABAAR (Mus musculus, UniProt P22723+P26048+P50571); experiment: as above; type: binding, murine; conditions: 400 nM α-Bgtx-AF555, 10 min RT; n = 6
T8 construct: expressed in transfected cells; host or cells: HEK-293
T8 sequence (P22723 39-474): as above
T8 sequence (P50571 26-474): as the sequence (P50571 26-474) above
T8 sequence (P26048 29-451): as the sequence (P26048 29-451) above
Procedure: as §1, §6, §2, §3, §5

[12] = molecular target: T9, α1β2γ2 GABAAR (Mus musculus, UniProt P22723+P62812+P63137); experiment: as above; type: binding, murine; conditions: 400 nM α-Bgtx-AF555, 10 min RT; n = 6
T9 construct: expressed in transfected cells; host or cells: HEK-293
T9 sequence (P63137 25-512): as the sequence (P63137 25-512) above
T9 sequence (P22723 39-474): as the sequence (P22723 39-474) above
T9 sequence (P62812 28-455): as the sequence (P62812 28-455) above
Procedure: as §1, §6, §2, §3, §5

α-Bgtx-AF555: α-Bgtx coupled to Alexa-Fluor 555 (Life Technologies)
cell surface and intracellular staining [1]: absent
cell surface and intracellular staining [2]: high levels of cell surface and intracellular staining
cell surface and intracellular staining [3]: absent
mean cell surface fluorescence intensity [4]: 9 ± 4 a.u.
binding of fluorescent α-Bgtx [5]: do not observe any binding
staining intensity (cell surface fluorescence) [6]: 64 ± 56 a.u.
mean cell surface fluorescence intensity [7]: 1294 a.u.
staining intensity (cell surface fluorescence) [8]: 90 ± 64 a.u.
staining intensity (cell surface fluorescence) [9]: 592 ± 46 a.u.
labelling with α-BgTx-AF555 [10]: did not show any labelling
mean cell surface fluorescence intensity [11]: 1057 ± 64 a.u.
staining intensity (cell surface fluorescence) [12]: 324 ± 33 a.u.
